The values that follow are results of earlier work, collected in publication PMC4518449 (Journal of chromatography. B, Analytical technologies in …, 2013).

For this data set the following is noted: rapidly cleared by DPP-4.

On to GLP-1, for which the half-life in plasma entry is recorded as “less than 2 min”.
